# Results from patent US20150328292A1, “CASPASE POLYPEPTIDES HAVING MODIFIED ACTIVITY AND USES THEREOF” (BELLICUM PHARMACEUTICALS, INC., priority 2014, published 2015).
# System: HEK293T/16 cells
# Test: SEAP reporter-based surrogate killing assay (basal activity and AP1903 IC50)
# Format: cell-based, human
# Conditions: AP1903-independent SEAP activity, vs wild type
# Description: FIG. 45 provides a schematic of an analysis of SEAP assays. […] of the mixture was seeded onto each well of a 96-well plate. […] For the assay, 4-methylumbelliferyl phosphate substrate was hydrolyzed by SEAP to 4-methylumbelliferon, a metabolite that can be excited with 364 nm and detected with an emission filter of 448 nm. Since SEAP is used as a marker for cell viability, reduced SEAP reading corresponds with increased icaspase-9 activities.
# Early passage HEK293T/16 cells (ATCC, Manassas, Va.) were maintained in IMDM, GlutaMAX™ (Life Technologies, Carlsbad, Calif.) supplemented with 10% FBS, 100 U/mL penicillin, and 100 […] until transfection in a humidified, 37° C., 5% CO2/95% air atmosphere. Cells in logarithmic-phase growth were transiently transfected with 800 ng to 2 μg of expression plasmid encoding iCasp9 mutants and 500 ng of an expression plasmid encoding SRα promoter driven SEAP per million cells in 15-mL conical tubes. […] GeneJammer® Transfection Reagent at a ratio of 3 μl per ug of plasmid DNA was used to transiently transfect HEK293T/16 cells in the absence of antibiotics. 100 μl or 2 mL of the transfection mixture was added to each well in 96-well or 6-well plate, respectively.
# Briefly, after 65° C. heat denaturation for 45 minutes to reduce background caused by endogenous (and serum-derived) alkaline phosphatases that are sensitive to heat, 5 μl of supernatants was added to 95 μl of PBS and added to 100 μl of substrate buffer, containing 1 μl of 100 mM 4-methylumbelliferyl phosphate (4-MUP; Sigma, St. Louis, Mo.) re-suspended in 2 M diethanolamine. Hydrolysis of 4-MUP by SEAP produces a fluorescent […] with excitation/emission (355/460 nm), which can be easily measured. Assays were performed in black opaque 96-well plates to minimize fluorescence leakage between wells (FIG. 45).
row,Molecule,basal activity / basal signaling (in words)
1,"N405A: chimeric modified caspase-9 polypeptide variant (protein, UniProt P55211 1-416, looked up, variant N405A, chimeric, fused to FKBP12v36, chimeric modified caspase-9 polypeptide variant) MDEADRRLLRRCRLRLVEELQVDQLWDALLSRELFRPHMIEDIQRAGSGSRRDQARQLIIDLETRGSQALPLFISCLEDTGQDMLASFLRTNRQAAKLSKPTLENLTPVVLRPEIRKPEVLRPETPRPVDIGSGGFGDVGALESLRGNADLAYILSMEPCGHCLIINNVNFCRESGLRTRTGSNIDCEKLRRRFSSLHFMVEVKGDLTAKKMVLALLELAQQDHGALDCCVVVILSHGCQASHLQFPGAVYGTDGCPVSVEKIVNIFNGTSCPSLGGKPKLFFIQACGGEQKDHGFEVASTSPEDESPGSNPEPDATPFQEGLRTFDQLDAISSLPTPSDIFVSYSTFPGFVSWRDPKSGSWYVETLDDIFEQWAHSEDLQSLLLRVANAVSVKGIYKQMPGCFAFLRKKLFFKTS",no effect
2,"G402Y: chimeric modified caspase-9 polypeptide variant (protein, UniProt P55211 1-416, looked up, variant G402Y, chimeric with dimerization domain, chimeric modified caspase-9 polypeptide variant) MDEADRRLLRRCRLRLVEELQVDQLWDALLSRELFRPHMIEDIQRAGSGSRRDQARQLIIDLETRGSQALPLFISCLEDTGQDMLASFLRTNRQAAKLSKPTLENLTPVVLRPEIRKPEVLRPETPRPVDIGSGGFGDVGALESLRGNADLAYILSMEPCGHCLIINNVNFCRESGLRTRTGSNIDCEKLRRRFSSLHFMVEVKGDLTAKKMVLALLELAQQDHGALDCCVVVILSHGCQASHLQFPGAVYGTDGCPVSVEKIVNIFNGTSCPSLGGKPKLFFIQACGGEQKDHGFEVASTSPEDESPGSNPEPDATPFQEGLRTFDQLDAISSLPTPSDIFVSYSTFPGFVSWRDPKSGSWYVETLDDIFEQWAHSEDLQSLLLRVANAVSVKGIYKQMPYCFNFLRKKLFFKTS",catalytically inactive
3,"C403P: chimeric modified caspase-9 polypeptide variant (protein, UniProt P55211 1-416, looked up, variant C403P, chimeric, fused to FKBP12v36, chimeric modified caspase-9 polypeptide variant) MDEADRRLLRRCRLRLVEELQVDQLWDALLSRELFRPHMIEDIQRAGSGSRRDQARQLIIDLETRGSQALPLFISCLEDTGQDMLASFLRTNRQAAKLSKPTLENLTPVVLRPEIRKPEVLRPETPRPVDIGSGGFGDVGALESLRGNADLAYILSMEPCGHCLIINNVNFCRESGLRTRTGSNIDCEKLRRRFSSLHFMVEVKGDLTAKKMVLALLELAQQDHGALDCCVVVILSHGCQASHLQFPGAVYGTDGCPVSVEKIVNIFNGTSCPSLGGKPKLFFIQACGGEQKDHGFEVASTSPEDESPGSNPEPDATPFQEGLRTFDQLDAISSLPTPSDIFVSYSTFPGFVSWRDPKSGSWYVETLDDIFEQWAHSEDLQSLLLRVANAVSVKGIYKQMPGPFNFLRKKLFFKTS",catalytically inactive
4,"G402Q: chimeric modified caspase-9 polypeptide variant (protein, UniProt P55211 1-416, looked up, variant G402Q, chimeric, fused to FKBP12v36, chimeric modified caspase-9 polypeptide variant) MDEADRRLLRRCRLRLVEELQVDQLWDALLSRELFRPHMIEDIQRAGSGSRRDQARQLIIDLETRGSQALPLFISCLEDTGQDMLASFLRTNRQAAKLSKPTLENLTPVVLRPEIRKPEVLRPETPRPVDIGSGGFGDVGALESLRGNADLAYILSMEPCGHCLIINNVNFCRESGLRTRTGSNIDCEKLRRRFSSLHFMVEVKGDLTAKKMVLALLELAQQDHGALDCCVVVILSHGCQASHLQFPGAVYGTDGCPVSVEKIVNIFNGTSCPSLGGKPKLFFIQACGGEQKDHGFEVASTSPEDESPGSNPEPDATPFQEGLRTFDQLDAISSLPTPSDIFVSYSTFPGFVSWRDPKSGSWYVETLDDIFEQWAHSEDLQSLLLRVANAVSVKGIYKQMPQCFNFLRKKLFFKTS",catalytically inactive
5,"N405T: chimeric modified caspase-9 polypeptide variant (protein, UniProt P55211 1-416, looked up, variant N405T, chimeric, fused to FKBP12v36, chimeric modified caspase-9 polypeptide variant) MDEADRRLLRRCRLRLVEELQVDQLWDALLSRELFRPHMIEDIQRAGSGSRRDQARQLIIDLETRGSQALPLFISCLEDTGQDMLASFLRTNRQAAKLSKPTLENLTPVVLRPEIRKPEVLRPETPRPVDIGSGGFGDVGALESLRGNADLAYILSMEPCGHCLIINNVNFCRESGLRTRTGSNIDCEKLRRRFSSLHFMVEVKGDLTAKKMVLALLELAQQDHGALDCCVVVILSHGCQASHLQFPGAVYGTDGCPVSVEKIVNIFNGTSCPSLGGKPKLFFIQACGGEQKDHGFEVASTSPEDESPGSNPEPDATPFQEGLRTFDQLDAISSLPTPSDIFVSYSTFPGFVSWRDPKSGSWYVETLDDIFEQWAHSEDLQSLLLRVANAVSVKGIYKQMPGCFTFLRKKLFFKTS",increased basal activity
6,"D315A: chimeric modified caspase-9 polypeptide variant (protein, UniProt P55211 1-416, looked up, variant D315A, chimeric, fused to FKBP12v36, chimeric modified caspase-9 polypeptide variant) MDEADRRLLRRCRLRLVEELQVDQLWDALLSRELFRPHMIEDIQRAGSGSRRDQARQLIIDLETRGSQALPLFISCLEDTGQDMLASFLRTNRQAAKLSKPTLENLTPVVLRPEIRKPEVLRPETPRPVDIGSGGFGDVGALESLRGNADLAYILSMEPCGHCLIINNVNFCRESGLRTRTGSNIDCEKLRRRFSSLHFMVEVKGDLTAKKMVLALLELAQQDHGALDCCVVVILSHGCQASHLQFPGAVYGTDGCPVSVEKIVNIFNGTSCPSLGGKPKLFFIQACGGEQKDHGFEVASTSPEDESPGSNPEPAATPFQEGLRTFDQLDAISSLPTPSDIFVSYSTFPGFVSWRDPKSGSWYVETLDDIFEQWAHSEDLQSLLLRVANAVSVKGIYKQMPGCFNFLRKKLFFKTS",reduced basal activity
7,"^402GCFNF^406ISAQT: caspase-9 with 402-406 residues replaced by those of Caspase-10 (protein, UniProt P55211 1-416, looked up, variant G402I C403S F404A N405Q F406T, residues from caspase-10) MDEADRRLLRRCRLRLVEELQVDQLWDALLSRELFRPHMIEDIQRAGSGSRRDQARQLIIDLETRGSQALPLFISCLEDTGQDMLASFLRTNRQAAKLSKPTLENLTPVVLRPEIRKPEVLRPETPRPVDIGSGGFGDVGALESLRGNADLAYILSMEPCGHCLIINNVNFCRESGLRTRTGSNIDCEKLRRRFSSLHFMVEVKGDLTAKKMVLALLELAQQDHGALDCCVVVILSHGCQASHLQFPGAVYGTDGCPVSVEKIVNIFNGTSCPSLGGKPKLFFIQACGGEQKDHGFEVASTSPEDESPGSNPEPDATPFQEGLRTFDQLDAISSLPTPSDIFVSYSTFPGFVSWRDPKSGSWYVETLDDIFEQWAHSEDLQSLLLRVANAVSVKGIYKQMPISAQTLRKKLFFKTS",reduced basal activity
8,"G402I: chimeric modified caspase-9 polypeptide variant (protein, UniProt P55211 1-416, looked up, variant G402I, chimeric, fused to FKBP12v36, chimeric modified caspase-9 polypeptide variant) MDEADRRLLRRCRLRLVEELQVDQLWDALLSRELFRPHMIEDIQRAGSGSRRDQARQLIIDLETRGSQALPLFISCLEDTGQDMLASFLRTNRQAAKLSKPTLENLTPVVLRPEIRKPEVLRPETPRPVDIGSGGFGDVGALESLRGNADLAYILSMEPCGHCLIINNVNFCRESGLRTRTGSNIDCEKLRRRFSSLHFMVEVKGDLTAKKMVLALLELAQQDHGALDCCVVVILSHGCQASHLQFPGAVYGTDGCPVSVEKIVNIFNGTSCPSLGGKPKLFFIQACGGEQKDHGFEVASTSPEDESPGSNPEPDATPFQEGLRTFDQLDAISSLPTPSDIFVSYSTFPGFVSWRDPKSGSWYVETLDDIFEQWAHSEDLQSLLLRVANAVSVKGIYKQMPICFNFLRKKLFFKTS",catalytically inactive
9,"N405F: chimeric modified caspase-9 polypeptide variant (protein, UniProt P55211 1-416, looked up, variant N405F, chimeric, fused to FKBP12v36, chimeric modified caspase-9 polypeptide variant) MDEADRRLLRRCRLRLVEELQVDQLWDALLSRELFRPHMIEDIQRAGSGSRRDQARQLIIDLETRGSQALPLFISCLEDTGQDMLASFLRTNRQAAKLSKPTLENLTPVVLRPEIRKPEVLRPETPRPVDIGSGGFGDVGALESLRGNADLAYILSMEPCGHCLIINNVNFCRESGLRTRTGSNIDCEKLRRRFSSLHFMVEVKGDLTAKKMVLALLELAQQDHGALDCCVVVILSHGCQASHLQFPGAVYGTDGCPVSVEKIVNIFNGTSCPSLGGKPKLFFIQACGGEQKDHGFEVASTSPEDESPGSNPEPDATPFQEGLRTFDQLDAISSLPTPSDIFVSYSTFPGFVSWRDPKSGSWYVETLDDIFEQWAHSEDLQSLLLRVANAVSVKGIYKQMPGCFFFLRKKLFFKTS",lowered basal activity
